In patent EP4631972A1, “SITE-SPECIFIC COUPLED PEGYLATED INTERLEUKIN-2 MUTANT WITH RECEPTOR AFFINITY PREFERENCE AND USE THEREOF” (priority 2022, dated 2024):

Target: T1, IL-2βγ dual receptor (Homo sapiens, UniProt P14784+P31785)
T1 construct: Uniprot P14784 1Met-551Val was constructed into plasmid pcDNA3.1(+); Uniprot P31785 1Met-551Thr was constructed into plasmid pcDNA3.1/zeo; expressed in transfected cells; host or cells: 293EC18 cells, transient co-transfection with pCMV/JAK3 and PGL4.52/STAT5RE
T1 sequence (P14784 27-551): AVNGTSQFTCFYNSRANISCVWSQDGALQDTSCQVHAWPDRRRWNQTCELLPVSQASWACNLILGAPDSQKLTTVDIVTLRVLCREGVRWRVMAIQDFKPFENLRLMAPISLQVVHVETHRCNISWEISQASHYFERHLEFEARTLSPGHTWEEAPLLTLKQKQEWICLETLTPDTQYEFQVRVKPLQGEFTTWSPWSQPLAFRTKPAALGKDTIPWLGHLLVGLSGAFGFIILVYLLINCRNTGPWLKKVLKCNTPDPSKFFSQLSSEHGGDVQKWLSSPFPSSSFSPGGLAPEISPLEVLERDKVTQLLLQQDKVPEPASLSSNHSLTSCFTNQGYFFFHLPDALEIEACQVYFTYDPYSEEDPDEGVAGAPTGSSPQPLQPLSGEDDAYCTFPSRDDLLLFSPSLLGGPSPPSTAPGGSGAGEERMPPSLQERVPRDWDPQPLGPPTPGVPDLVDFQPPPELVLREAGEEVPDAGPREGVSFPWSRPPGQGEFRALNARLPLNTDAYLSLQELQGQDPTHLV
T1 sequence (P31785 23-369): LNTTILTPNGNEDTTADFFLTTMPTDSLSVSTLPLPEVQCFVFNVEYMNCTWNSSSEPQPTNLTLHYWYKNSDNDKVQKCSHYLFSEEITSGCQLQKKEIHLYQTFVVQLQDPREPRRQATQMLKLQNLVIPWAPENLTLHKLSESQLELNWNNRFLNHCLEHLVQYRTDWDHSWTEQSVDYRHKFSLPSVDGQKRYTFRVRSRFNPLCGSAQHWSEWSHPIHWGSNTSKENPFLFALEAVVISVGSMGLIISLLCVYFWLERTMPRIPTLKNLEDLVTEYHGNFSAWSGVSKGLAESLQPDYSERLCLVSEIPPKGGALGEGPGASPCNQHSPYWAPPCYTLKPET
Assay: STAT5 reporter gene assay, activation of IL-2βγ dual receptor in 293EC18/βγ/JAK3/STAT5 cells
Type: cell-based
Settings: for activation effect on the IL-2Rβγ dual receptor compared with control IL-2 N88R: Figure 1, concentration of 65.2 nM
Protocol: Since the binding of IL-2 to the β and γ subunits of its receptor induces STAT5 phosphorylation, which subsequently leads to dimerization and translocation into the nucleus to promote target gene transcription, this example evaluates the ability of the mutant IL-2 polypeptides to induce signaling through the IL-2 receptor by measuring STAT5 phosphorylation.
Adherent 293EC18 cells were cultured to about 90% confluence using conventional methods. After trypsin digestion, the cells were resuspended in cell culture medium to 4×10^5 cells/ml and 50 µl/well were added to two 96-well cell culture plates. After incubation at 37°C for 48 h, the supernatant was aspirated and fresh culture medium was added. According to the manufacturer's method, four plasmids, pcDNA3.1(+)/CD122 (constructed by Nanjing Novoacine Biotechnology Co., Ltd, Uniprot P14784 1Met-551Val was constructed into plasmid pcDNA3.1(+)), pcDNA3.1/puro/CD132 (constructed by Nanjing Novoacine Biotechnology Co., Ltd, Uniprot P31785 1Met-551Thr was constructed into plasmid pcDNA3.1/zeo), pCMV/JAK3 (Sino Biological), and PGL4.52/STAT5RE (Promega) were transiently transfected into 293EC18 cells using a cationic transfection reagent (ExFect Transfection Reagent, Vazyme). The obtained cells were named 293EC18/βγ/JAK3/STAT5 cells. Alternatively, five plasmids, pcDNA3.1/zeo/CD25 (constructed by Nanjing Novoacine Biotechnology Co., Ltd, Uniprot P01589 1Met-551Ile constructed into plasmid pcDNA3.1/zeo), pcDNA3.1(+)/CD122 (constructed by Nanjing Novoacine Biotechnology Co., Ltd, Uniprot P14784 1Met-551Val constructed into plasmid pcDNA3.1(+)), pcDNA3.1/puro/CD132 (constructed by Nanjing Novoacine Biotechnology Co., Ltd, UniprotP31785 1Met-551Thr constructed into plasmid pcDNA3.1/zeo), pCMV/JAK3 (Sino Biological), and PGL4.52/STAT5RE (Promega) were transiently transferred into 293EC18 cells, and the obtained cells were named 293EC18/αβγ/JAK3/STAT5 cells. The transfected cells were incubated at 37°C and 5% CO2 for another 6 h.
Each IL2 mutant was diluted 4-fold in a gradient manner using PBS buffer, with a total of 11 dilutions and a starting concentration of 65.2 nM. In the above cell culture plates, 50 µl/well of each of the serially diluted IL2 mutant samples was added in duplicate. Then, the cell culture plate was placed in an incubator at 37°C and 5% CO2 for overnight culture. The cell culture plates were kept at room temperature for 20 ± 5 minutes to equilibrate the plates to room temperature. Bio-Lite Luciferase Assay System reagents that have been mixed and equilibrated to room temperature were added to the cell culture plates to be tested at 100 µl/well, placed on a microplate shaker at 450 rpm to mix for 2 minutes, then allowed to stand at room temperature for 3 minutes, and the chemiluminescence value was detected with an enzyme plate reader.
The logarithm of the final concentration of each IL-2 mutant sample was used as the X-axis, and the chemiluminescence detection results were used as the Y-axis for plotting. Data were analyzed using the four-parameter logistic regression model in GraphPad Prism 9. Table 2 EC50 values for the activation of the IL-2αβγ triple receptor by PEG-IL-2 mutants as determined by a reporter gene assay.
According to the method of Example 3, each polyethylene glycol-modified mutant obtained in this example was assessed for the binding preference to the IL2 receptors by a reporter assay. Table 4 EC50 values for the activation of the IL-2αβγ triple receptor by PEG-IL-2 mutants as determined by a reporter gene assay.
Referring to Example 3, the phosphorylation of STAT5 was used to evaluate the ability of the PEG-modified IL-2 mutants having a non-natural amino acid mutation prepared in Example 14 to induce signal transduction via the IL-2 receptor. […]

B1: 80K-1PEG-IL2-N88R-N77C: IL-2 mutant N88R, N77C, conjugation site 77, PEG molecular weight 80kD (conjugate)
chain: APTSSSTKKTQLQLEHLLLDLQMILNGINNYKNPKLTRMLTFKFYMPKKATELKHLQCLEEELKPLEEVLNLAQSKC(PEG 80 kDa)FHLRPRDLISRINVIVLELKGSETTFMCEYADETATIVEFLNRWITFSQSIISTLT
  activation effect on the IL-2Rβγ dual receptor compared with control IL-2 N88R: lower activation effects
Listed as 80k-PEG-IL2-N88R-N77C
  activation effect on the IL-2Rβγ dual receptor compared with control IL-2 N88R: the most significant reduction in activation ability
Figure 2, all concentrations
  activation effect on / affinity to IL-2Rβγ dual receptor compared with control IL-2 N88R: further reduced the affinity to IL-2Rβγ
